Legend:
[1] = molecular target: Salpingoeca rosetta caveolin (F2U793) (Salpingoeca rosetta); experiment: cryo-EM structure
cryo-EM structure = molecular target: the molecule itself; experiment: cryo-EM structure

Row | Molecule | stoichiometry N [1] | stoichiometry N (cryo-EM structure)
1 | Salpingoeca rosetta caveolin (F2U793) (natural protein) | 11 | –
2 | Strongylocentrotus purpuratus caveolin (A0A7M7T4C2) (natural protein, UniProt A0A7M7T4C2 1-159, looked up) MELIHPENGPSGTVQVPLIQGVDQSDTEDVYRLSPHVTTGFADTFKESNDIMGFSFMEKVNGAIYKYTHFAFYAVLNLLLAPFIAFSFGLSFAVMHFAVVWFVQPIMKLYYVWLRVFNLAYEPALRLVCDPIHRSIALILSGIKGQFKMNSSDVKTSQV | – | 11
